# According to patent publication US20240026031A1 (University of California, published 2024):
# T1: RNF43 (UniProt Q68DV7 24-197, limits assumed)
# T1 sequence (looked up): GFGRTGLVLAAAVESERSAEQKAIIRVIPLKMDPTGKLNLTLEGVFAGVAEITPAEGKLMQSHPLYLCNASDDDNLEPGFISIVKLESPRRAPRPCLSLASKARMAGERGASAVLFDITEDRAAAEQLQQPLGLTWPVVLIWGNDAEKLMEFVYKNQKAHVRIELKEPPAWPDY
# Experiments:
# RNF43 [1] = molecular target: T1, RNF43; experiment: affinity for RNF43; method and format not stated; WT anti-RNF43 A5
# RNF43 [2] = molecular target: T1, RNF43; experiment: affinity for RNF43; method and format not stated; S113A mutant of CDR H3
# RNF43 [3] = molecular target: T1, RNF43; experiment: affinity for RNF43; method and format not stated; F115A mutant of CDR H3
binder,measurement,setting,value
"anti-RNF43 A5 (WT RNF43 binder) (Fab, V domains shown, also called WT RNF43 A5; clone anti-RNF43 A5) VH: EVQLVESGGGLVQPGGSLRLSCAASGFNIYYYSMHWVRQAPGKGLEWVASISPYYSYTSYADSVKGRFTISADTSKNTAYLQMNSLRAEDTAVYYCARYGYYGWDYHRYSAFDYWGQGTLVTVSS VL: DIQMTQSPSSLSASVGDRVTITCRASQSVGSALAWYQQKPGKAPKLLIYSASSLYSGVPSRFSGSRSGTDFTLTISSLQPEDFATYYCQQAYPITFGQGTKVEIKR",Kd,RNF43 [1],12.5 nM
"anti-RNF43 A5 alanine mutant S113A (CDR H3) (Fab, V domains shown, also called 40 nM) VH: EVQLVESGGGLVQPGGSLRLSCAASGFNIYYYSMHWVRQAPGKGLEWVASISPYYSYTSYADSVKGRFTISADTSKNTAYLQMNSLRAEDTAVYYCARYGYYGWDYHRYAAFDYWGQGTLVTVSS VL: DIQMTQSPSSLSASVGDRVTITCRASQSVGSALAWYQQKPGKAPKLLIYSASSLYSGVPSRFSGSRSGTDFTLTISSLQPEDFATYYCQQAYPITFGQGTKVEIKR",Kd,RNF43 [2],40 nM
"anti-RNF43 A5 alanine mutant F115A (CDR H3) (Fab, V domains shown) VH: EVQLVESGGGLVQPGGSLRLSCAASGFNIYYYSMHWVRQAPGKGLEWVASISPYYSYTSYADSVKGRFTISADTSKNTAYLQMNSLRAEDTAVYYCARYGYYGWDYHRYSAADYWGQGTLVTVSS VL: DIQMTQSPSSLSASVGDRVTITCRASQSVGSALAWYQQKPGKAPKLLIYSASSLYSGVPSRFSGSRSGTDFTLTISSLQPEDFATYYCQQAYPITFGQGTKVEIKR",Kd,RNF43 [3],125 nM
